Data: patent publication US20260209318A1 (NATIONAL UNIVERSITY OF SINGAPORE, published 2026)
Numbering of substitutions follows the chain as printed. Names may count otherwise.

B1: Ab3 (C2.2) (antibody, V domains shown)
VH: QVQLVQSGAEVKKPGSSVRVSCEASGDTFSRYAISWVRQAPGQGLEWMGRIIPMFGMANSAQKFQARVTISADKSTSTAYMEVSSLRSEDTAVYYCATDTFYPNDGVHRMEYWGQGALVIVSS
VL: DIQMTQSPSSLSASVGDRVTITCRASQTISNYLNWYQQKPGKAPNLLIYGTSILQSGVPSRFSGSGSGTDFTLTISSLQPEDFATYYCQQSHSAPRTFGPGTKVDIK
B2: Ab4 (G7.2) (antibody, V domains shown)
VH: QVQLVQSGAEVKKPGSSVKVSCEASGGTFSTYAISWVRQAPGQGLEWMGRIIPIFGIANYAQKFQGRVTITADKSTSTAYMEVSSLRSEDTAVYYCATTFYDHSSTYRTHSMDVWGQGTTVTVSS
VL: DIQMTQSPSSLSASVGDRVTITCRASQSISNYLNWYQQRPGKAPKLLIYAASGLQSGVPSRFSGSGSGTNFTLTISTLHPEDFATYYCQQTHSTPRAFGGGTKVEIK
B3: Ab6 (K23) (antibody, V domains shown)
VH: EVQLVESGGGLVQPGGSLRLSCSASGFTFNNYVMHWVRQAPGKGLEYVSAINSNGGSTYYAGSVKGRFTISRDNSNNTLYLQMSSLRAEDTAVYYCIKDAGYYSSLGVDSWGQGTLVTVSS
VL: EIVLTQSPATLSLSPGERATLSCRASQSVGSYLAWFQQKPGQAPRLLIYDASYRATGIPARFSGSGSGTDFTLTISSLEPEDVGIYYCQQRSNWPQTFGGGTKVDIK
B4: Ab7 (G1) (antibody, V domains shown)
VH: EVQLVESGGGLVKPGGSLRLSCAASGFTVSTYIINWVRQAPGKGLEWVSSITSESDYMFDADSVRGRFTISRDNAKNLVYLQMNSLRAEDTAVYYCARDQGAYSGYDLSPGGDAFDVWGQGTMVTVSS
VL: DIQMTQSPSTLSASVGDRVTITCRASQSISTWLAWYQQKPGKAPKLLIYKASNLESGVPSRFSGSGSGTEFTLTISRLQPDDSATYCCQHYNSYPYTFGQGTKVEIK
B5: Ab8 (B9) (antibody, V domains shown)
VH: EVQLVQSRAEVKKPGESLKISCKGSGYSFTTYWIGWVRQMPGKGLEWMGIIRPGDSDTRYSPSFQGQVTISADKSITTAYLQWSSLKASDTAMYYCAMTYSGDQYDFWGQGTVVTVSS
VL: B4 VL with S30H, K39T, N53L, R77S, D81G, S83F, C87Y, P95S, Y96H
B6: Ab9 (C68) (antibody, V domains shown)
VH: QVQLVQSGAEVKKPGASVKVSCKISGYTLTDFSIHWVRQAPGKGLEWMAGFDPEHRETIFAQKFQGRVAMTEATSTDTAYMELSSLRSDDTAVYYCATTGDFDSWRGYYLWGQGTLVTVSA
VL: DIQLTQSPSSVSASVGDSVTITCRASQGISRWLAWYQQKPGKAPRLLIYSASTLQSGVPSRFSGSGSGTDFTLTISSLQPDDFATYYCQHTNNFPFSFGPGTKVDIK
B7: Ab11 (D4) (antibody, V domains shown)
VH: QVQLQESGPRLVKPSGTLSLSCAVSGGPFSNTNWWSWIRQTPGKGLEWIGEINDSGNTVYNPALKSRVTMSVDKSKKQFSLNLHSLTAADTAVYFCARVWGHFDYWGQGVRVTVSS
VL: DIQMTQSPSSLYASVADRVTITCRASQGISNSLAWYQQQPGKAPQLLLYAASTLESGVPSRFSGSGSGTDFTLTISSLQPEDFATYYCQQYYSLRTFGGGTKVEIK
B8: Ab12 (H5) (antibody, V domains shown)
VH: EVQLLESGGGLVQPGGSLRLSCAASGFTFSGSDMSWVRQAPGKGLEWVSVIGGSGTYAYYSDSVKGRFTISRDNSKNMLFLQMNSLRAEDTAIYYCAKETGFLWFGELLDSWGQGALVTVSS
VL: DIQMTQSPSSLSASVGDRVTITCRASEAISNSLAWYQQRPGKAPRLLLYAAATLESGVPPRFSGSGSGTDFTLTISTLQPEDFATYYCQQYYSPPPRTFGQGTKVEIK
B9: Ab13 (D10) (antibody, V domains shown)
VH: EVQLVESGGGLVQPGRSLRLSCAASGFTFDEYAMHWVRQAPGKGLEWVSGISFNSGSVGYAGAAKGRFTISRDNAKKSLYLEMNSLRDEDTAFYYCAKDRGEHWLVRLFDSWGQGTLVTVSS
VL: DIQMTQSPSTLSASVGDRVTITCRPSQSIDRWLAWYQQKPGKAPTLLISAASSLETGVPSRFSGSGSGTEFTLTISSLQPDDFATYYCQQYNGYSMFGPGTKVEIK
B10: Ab14 (F9) (antibody, V domains shown)
VH: EVQLVESGGGLVQPGGSLRLSCATSGFTFDDFAMHWVRQGPGKGLEWVSGISWNSGKIAYTDSVKGRFSISRDNAKNSLYLQMNSLRPEDTALYYCTKDHAPSAILGDILTGFDPWGQGTLVT
VL: DIQMTQSPVSLSASVGDRVTITCRASQSISVYLNWYQQKPGKAPKLLMYAASILQSGVPSRFSGSGSATDFTLTITSLQPEDFATYFCQQSFTMPPTFGQGTNLEIK
B11: Ab19 (F5.1) (antibody, V domains shown)
VH: EVQLVESGGGLVKPGGSLRLSCAASGFIFSRNGMHWVRQAPGKGLEWVSSIDNDGTYMYYADSVRGRFTVSRDNAKNSLFLQLNSLRAEDTAVYYCARDRFGYYDALTDSYNAGYFDSWGQGTLVTVSS
VL: DIQMTQSPSSLSASVGDSVTITCRASQDIYNYLAWFQQKPGKAPKSLIYTASKLESGVPSKFSGSGSGTDFTLTISSLQPEDFATYYCQQYHSSPITFGQGTRVEIK
B12: Ab20 (C6.1) (antibody, V domains shown)
VH: EVQLVESGGGLVKPGGSLRLSCAASGFAFSTNGMNWVRQVPGKGLEWVSSISSTSEYTYYTESVKGRFTISRDNAKNSLFLQMNSLRAEDTAVYYCVRDRFGYYDVLASSYNVGFFQSWGQGALVTVSS
VL: DIQMTQSPSSLSASVGDGVTITCRASQDISNNLAWFQQKPGKAPKCLIYSASSLQSGVPLKFRGSGSGTDFTLSITSLDPEDFATYYCQQYISYPITFGQGTRLDIK
B13: Ab21 (E6.1) (antibody, V domains shown)
VH: QVQLVQSGAEVKKPGSSVEVSCKASGGTFSSYAISWVRQAPGQGLEWMGRIIPSLGITNSAENFQGRVTITADKSTSTVYMELSSLRSEDTAVYYCARDFHPLYQSCSSTSCYDEWEPRMDVWGQGTTVTVSS
VL: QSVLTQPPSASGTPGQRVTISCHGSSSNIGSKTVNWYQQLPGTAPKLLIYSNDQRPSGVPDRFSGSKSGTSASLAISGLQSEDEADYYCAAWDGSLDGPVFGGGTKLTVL
B14: Ab22 (C9.1) (antibody, V domains shown)
VH: QVQLVQSGAEVKKPGSSVKVSCKASGGTFSSYGISWVRQAPGQGLEWMGRIIPSLSITNSAEKFQGRVTITADKSTSTAYMELSRLRSEDTALYYCARDFHPRYEFCDSTSCYDEWEPRMDVWGQGTTVTVSS
VL: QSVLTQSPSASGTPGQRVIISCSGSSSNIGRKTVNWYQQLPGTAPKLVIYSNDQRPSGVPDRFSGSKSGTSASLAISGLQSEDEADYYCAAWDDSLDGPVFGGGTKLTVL
B15: Ab25 (H10.2) (antibody, V domains shown)
VH: B14 VH with G26R, S31N, G33A, I70M, A79V, L93V, F106Y, D108S
VL: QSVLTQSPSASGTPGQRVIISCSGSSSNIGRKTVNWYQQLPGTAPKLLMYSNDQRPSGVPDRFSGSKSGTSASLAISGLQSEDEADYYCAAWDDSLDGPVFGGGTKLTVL
B16: Ab23 (B10.1) (antibody, V domains shown)
VH: QVQLVQSGAEVKKPGSAVKVSCKASGGTFSSYPITWVRQAPGQGLEWVGRAIPILGITSTAQKFQGRVTIIADKSTSTAYMELSRLRSEDTAVYYCARDFHPRYQDCDSTSCYDQWEPRMDVWGQGTTVTVSS
VL: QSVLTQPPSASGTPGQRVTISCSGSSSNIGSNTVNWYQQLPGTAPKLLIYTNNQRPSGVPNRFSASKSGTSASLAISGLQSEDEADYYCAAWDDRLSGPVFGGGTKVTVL
B17: Ab26 (G4.2) (antibody, V domains shown)
VH: QVQLVQSGAEVKKPGSSVKVSCKASGGTFSSHTVSWVRQAPGQGLEWMGRIIPPFGIVNYAQKFQGRVTMTADESTSTAYMELSSLRSEDTAVYYCARSNVVVVTEAGWFDPWGQGTLVTVSS
VL: DIQMTQSPSSVSASVGDRVSISCRASQDISSSLAWYQQKPGQAPKVLIYDASTLQSGVPSRFSGSGSGTDFTLTISNLRPDDFATYFCQQAHSFPFTFGPGTKVDIR
B18: Ab27 (E12.2) (antibody, V domains shown)
VH: EVQLVESGGGLVQPGGSLRLSCGASGITVSSNYMNWVRQAPGKGLEWVSTLYAGGSTFYADSVKGRFIISRDNSKNTLYLQMNSLRADDTAVYYCARDLVDYGMDVWGQGTTVTVSS
VL: DIQLTQSPSSLSASVGDRVTITCRASQGISSYLAWYQQKPGKAPKLLIYAASTLQSGVPSRFSGSGSGTDFTLTISSLQPEDFATYYCQQLNSYSPFTFGPGTKVDIK
B19: Ab28 (10x-L8N-c1) (antibody, V domains shown)
VH: QFQLVQSGAEVKKPGSSVKVSCRASGGSFTSHAISWVRQAPGQGFEWMGRIIPMFGIANYAPKFQGRVTMSADKFKDIVYMEVNSLTSEDTALYYCARSQPMTSVTTLWFDPWGQGTLVTVSS
VL: EIVLTQSPGTLSLSPGERATLSCRASEPVGGSYLAWYQQKPGQAPRLLIHGASSRATGIPDRFSGSGSGTDFVLTISRLEPEDFAVYHCQQYASSPYTFGQGTKLEIK
B20: Ab32 (10x-L8N-c12) (antibody, V domains shown)
VH: EVQLVESGGGLVQPGGSLRVTCVASGFAVRTNFMTWVRQAPGKGLQCVSVIYGDGSTYYADSVKGRFSISRDNSKNTVYLQMNSLSAEDTAVYYCAREVSHAFDLWGPGTMVTVSS
VL: DIQLTQSPSTLSASLGDRVTITCRASQSISGWLAWYQQKPGRAPQLLIYKASLLETGVPSRFSGSGSGTVFTLTISSLQPDDFATYYCQQYDTYSPYTFGQGTKLEIK
B21: Ab35 (10x-L8N-c20) (antibody, V domains shown)
VH: QVQLQESGPGLVKPSETLSLTCTVSGDSIYSYSWTWIRQPPGKGLEWIGQLYYNGSTSYNASLKSRVSISLDTSKNQFSLKLRFVTAADTAMYYCARVEYYSNYFDPWGQGTQVTVSS
VL: EIVLTQSPATLSLSPGERATLSCRASQSVGSYLAWYQQKPGQAPRLLIYDASNRVPGIPARFSGSGSGTDFTLTISSLPPEDFAVYYCQQRSDWPPTFGGGTKVEIR
B22: Ab39 (10x-L8N-c30) (antibody, V domains shown)
VH: QVQLVQSGAEVKKPGSSVKISCKASGDTSSSYTINWVRQAPGQGLEWMGRIIPMFNRANYARKFQGRVTMTADRSTDTAYMEVSSLTSDDTAVYYCARTWIEPHNWFDPWGQGTLVTVSS
VL: EIVLRQSPGTLSLSPGERATLSCRASQSVSGNHLAWYQRKPGQAPRLLIYAASSRATGIPDRFSGSGSGTDFTLTINRLEPEDFAVFYCQQYGTSPPTFGGGTKVEIK
B23: Ab40 (10x-L8N-c32) (antibody, V domains shown)
VH: QVQLQESGPRLVKPSETLSLTCTVSGGSISSYYWTWIRQPPGKGLEWIGYISYSGSTNYNPSLRSRVTMSVDTSKNQFSLDLNSVTAADTAVYYCATDGGGFYPGYFPHWGQGTLVTVSS
VL: DIQMTQSPSSLSASVGDRVTITCRASQSISDYVNWYQQKPGRAPRLLIYAPSTLQSGVPSRFSGSGSGTDFTLTISNLQPEDFGTYFCQQSYSTPPYTFGQGTKVEMK

Target: BQ.1.1 spike protein (SARS-CoV-2 variant BQ.1.1, UniProt P0DTC2 14-1273)
Assay: cell-based or functional assay

B1 and B2 cannot be ordered by “IC50 (pVNT)” value: ≤ 300 ng/ml for the first, ≤ 300 ng/ml for the second.

B3 and B4 cannot be ordered by “IC50 (pVNT)” value: ≤ 550 ng/ml for the first, ≤ 550 ng/ml for the second.

B5 and B6 cannot be ordered by “IC50 (pVNT)” value: ≤ 550 ng/ml for the first, ≤ 550 ng/ml for the second.

B7 and B8 cannot be ordered by “IC50 (pVNT)” value: ≤ 550 ng/ml for the first, ≤ 550 ng/ml for the second.

B9 and B10 cannot be ordered by “IC50 (pVNT)” value: ≤ 550 ng/ml for the first, ≤ 550 ng/ml for the second.

B11 and B12 cannot be ordered by “IC50 (pVNT)” value: ≤ 550 ng/ml for the first, ≤ 550 ng/ml for the second.

B13 and B14 cannot be ordered by “IC50 (pVNT)” value: ≤ 550 ng/ml for the first, ≤ 550 ng/ml for the second.

B15 and B16 cannot be ordered by “IC50 (pVNT)” value: ≤ 550 ng/ml for the first, ≤ 550 ng/ml for the second.

B17 and B18 cannot be ordered by “IC50 (pVNT)” value: ≤ 550 ng/ml for the first, ≤ 550 ng/ml for the second.

B19 and B20 cannot be ordered by “IC50 (pVNT)” value: ≤ 550 ng/ml for the first, ≤ 550 ng/ml for the second.

B21 and B22 cannot be ordered by “IC50 (pVNT)” value: ≤ 550 ng/ml for the first, ≤ 550 ng/ml for the second.

B23 was tested, and the “IC50 (pVNT)” value was ≤ 550 ng/ml.

Point of comparison: B1, “concentration required to effectively neutralize (pVNT)” value 271 ng/ml. Against it:
- B2 — lower, 48.4 ng/ml

Point of comparison: B1, “times less than the concentration of E7” value ~2 times. Against it:
- B2 — higher, ~11 times
